Results published in US20200010547A1.

Biological target: CD30 on CD30+ lymphoma cell lines (UniProt P28908)
Assay: cell-based or functional assay

UniProt P28908, sequence (P28908 19-595 limits assumed): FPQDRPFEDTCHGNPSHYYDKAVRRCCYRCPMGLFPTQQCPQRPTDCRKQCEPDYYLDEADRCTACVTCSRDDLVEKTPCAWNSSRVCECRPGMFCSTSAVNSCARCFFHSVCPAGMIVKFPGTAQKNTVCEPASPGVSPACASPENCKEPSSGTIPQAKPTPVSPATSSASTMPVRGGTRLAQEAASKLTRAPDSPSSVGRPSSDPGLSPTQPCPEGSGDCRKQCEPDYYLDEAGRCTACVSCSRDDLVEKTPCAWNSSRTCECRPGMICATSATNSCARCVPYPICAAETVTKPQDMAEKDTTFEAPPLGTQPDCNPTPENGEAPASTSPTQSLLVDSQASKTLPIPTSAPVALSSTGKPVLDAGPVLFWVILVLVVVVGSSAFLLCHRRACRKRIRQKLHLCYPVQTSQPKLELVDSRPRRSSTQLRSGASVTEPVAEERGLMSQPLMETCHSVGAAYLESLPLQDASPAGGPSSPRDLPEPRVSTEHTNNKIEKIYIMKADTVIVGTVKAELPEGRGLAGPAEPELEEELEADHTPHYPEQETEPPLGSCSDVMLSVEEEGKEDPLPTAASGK

specific lysis of CD30+ tumor cells by NK cells, 4-hour 51Cr release assay: 0.001 µg/mL
Substance: bispecific tetravalent CD30/CD16A tandem diabody AFM13 (bispecific antibody)
